Source: publication PMC10214761

Target: IgG1k from human myeloma plasma (IgG1 MC) (human)
Assay: SPR

Substance	Kd
human Fcγ receptor IIa (hFcγRIIa) (from UniProt P12318 34-217)	309 nM
human Fcγ receptor IIb/c (hFcγRIIb/c) (from UniProt P31994 43-217)	3360 nM
